From ChEMBL document CHEMBL2074123, “Expression cloning of a rat liver Na(+)-independent organic anion transporter” (Proc Natl Acad Sci U S A, 1994)

Substrate: O=C1OC(c2ccc(O)c(S(=O)(=O)O)c2)(c2ccc(O)c(S(=O)(=O)O)c2)c2c(Br)c(Br)c(Br)c(Br)c21
Experiment: TP_TRANSPORTER: uptake (no BSA) in Xenopus laevis oocytes
Assay type: functional, cell-based, Oocyte

B1: Solute carrier organic anion transporter family member 1A1 (Rattus norvegicus) (protein)
chain: MEETEKKIATQEGRLFSKMKVFLLSLTCACLTKSLSGVYMNSMLTQIERQFDISTSVAGLINGSFEIGNLFFIVFVSYFGTKLHRPVVIGIGCVIMGLGCLLMSLPHFFMGRYEYETTISPTGNLSSNSFLCMENRTQTLKPTQDPAECVKEMKSLMWICVMVGNIIRGIGETPIVPLGISYIEDFAKSENSPLYIGILEMGKVAGPIFGLLLGSYCAQIYVDIGSVNTDDLTITPSDTRWVGAWWIGFLVCAGVNILTSIPFFFLPKALPKKGQQENVAVTKDGKVEKYGGQAREENLGITKDFLTFMKRLFCNPIYMLFILTSVLQVNGFINKFTFLPKYLEQQYGKSTAEAIFLIGVYSLPPICLGYLIGGFIMKKFKITVKKAAYLAFCLSVFEYLLFLCHFMLTCDNAAVAGLTTSYKGVQHQLHVESKVLADCNTRCSCSTNTWDPVCGDNGVAYMSACLAGCKKFVGTGTNMVFQDCSCIQSLGNSSAVLGLCKKGPECANRLQYFLILTIIISFIYSLTAIPGYMVFLRCVKSEEKSLGVGLHTFCIRVFAGIPAPVYFGALIDRTCLHWGTLKCGQRGACRMYDINSFRHIYLGLPIALRGSSYLPAFFILILMRKFQFPGDIDSSATDHTEMMLGEKESEHTDVHGSPQVENDGELKTKL
Km: 1.5 µM
